In US20220333113:

Key:
Test in all cases: filter
Conditions in all cases: J = PPdU at every J; SB18T0.01 + 1 mM DTT, 37 C
[1] = target: T1, RIG-I K849A (Homo sapiens) (UniProt O95786)
T1 sequence: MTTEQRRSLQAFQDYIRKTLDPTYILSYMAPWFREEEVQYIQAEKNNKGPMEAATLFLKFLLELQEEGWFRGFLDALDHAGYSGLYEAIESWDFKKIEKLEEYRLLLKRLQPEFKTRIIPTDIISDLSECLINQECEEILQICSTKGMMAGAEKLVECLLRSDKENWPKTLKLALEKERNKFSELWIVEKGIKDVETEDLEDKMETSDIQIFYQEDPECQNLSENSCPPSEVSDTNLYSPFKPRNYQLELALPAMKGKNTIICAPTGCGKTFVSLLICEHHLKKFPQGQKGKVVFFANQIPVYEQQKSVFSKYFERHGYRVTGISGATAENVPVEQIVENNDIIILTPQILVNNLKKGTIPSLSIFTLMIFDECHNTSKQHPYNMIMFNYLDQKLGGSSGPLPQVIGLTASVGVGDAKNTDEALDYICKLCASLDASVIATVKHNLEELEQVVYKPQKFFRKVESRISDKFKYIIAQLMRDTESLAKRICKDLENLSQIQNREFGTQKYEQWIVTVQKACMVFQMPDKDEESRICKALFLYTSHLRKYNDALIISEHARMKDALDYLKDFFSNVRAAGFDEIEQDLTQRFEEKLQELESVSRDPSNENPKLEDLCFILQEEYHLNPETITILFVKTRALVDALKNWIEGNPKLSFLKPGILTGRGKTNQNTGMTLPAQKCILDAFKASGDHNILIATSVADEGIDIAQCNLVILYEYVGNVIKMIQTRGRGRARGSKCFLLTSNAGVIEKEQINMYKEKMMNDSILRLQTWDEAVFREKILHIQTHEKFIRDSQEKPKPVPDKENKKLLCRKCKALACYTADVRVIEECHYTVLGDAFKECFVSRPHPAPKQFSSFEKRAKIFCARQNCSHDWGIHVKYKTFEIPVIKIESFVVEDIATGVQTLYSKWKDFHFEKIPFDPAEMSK

[2] = target: T2, RIG-I helicase domain (aa 229-793) (Homo sapiens) (UniProt O95786)
T2 sequence: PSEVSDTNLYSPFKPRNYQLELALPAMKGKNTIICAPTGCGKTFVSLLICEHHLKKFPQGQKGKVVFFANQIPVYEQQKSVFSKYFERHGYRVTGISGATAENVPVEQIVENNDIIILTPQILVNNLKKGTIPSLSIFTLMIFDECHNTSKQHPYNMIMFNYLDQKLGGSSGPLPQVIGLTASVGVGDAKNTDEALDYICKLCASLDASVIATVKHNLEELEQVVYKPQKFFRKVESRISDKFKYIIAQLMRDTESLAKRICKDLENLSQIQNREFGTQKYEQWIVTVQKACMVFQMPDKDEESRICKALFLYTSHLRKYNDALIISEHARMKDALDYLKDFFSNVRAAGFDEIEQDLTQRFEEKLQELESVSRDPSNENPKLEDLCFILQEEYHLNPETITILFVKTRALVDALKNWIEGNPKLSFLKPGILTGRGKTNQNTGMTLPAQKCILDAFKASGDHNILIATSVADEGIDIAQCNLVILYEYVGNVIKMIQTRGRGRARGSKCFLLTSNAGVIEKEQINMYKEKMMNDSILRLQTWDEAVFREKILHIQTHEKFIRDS

[3] = target: T3, RIG-I ΔCARDs (aa 229-925) (Homo sapiens) (UniProt O95786)
T3 sequence: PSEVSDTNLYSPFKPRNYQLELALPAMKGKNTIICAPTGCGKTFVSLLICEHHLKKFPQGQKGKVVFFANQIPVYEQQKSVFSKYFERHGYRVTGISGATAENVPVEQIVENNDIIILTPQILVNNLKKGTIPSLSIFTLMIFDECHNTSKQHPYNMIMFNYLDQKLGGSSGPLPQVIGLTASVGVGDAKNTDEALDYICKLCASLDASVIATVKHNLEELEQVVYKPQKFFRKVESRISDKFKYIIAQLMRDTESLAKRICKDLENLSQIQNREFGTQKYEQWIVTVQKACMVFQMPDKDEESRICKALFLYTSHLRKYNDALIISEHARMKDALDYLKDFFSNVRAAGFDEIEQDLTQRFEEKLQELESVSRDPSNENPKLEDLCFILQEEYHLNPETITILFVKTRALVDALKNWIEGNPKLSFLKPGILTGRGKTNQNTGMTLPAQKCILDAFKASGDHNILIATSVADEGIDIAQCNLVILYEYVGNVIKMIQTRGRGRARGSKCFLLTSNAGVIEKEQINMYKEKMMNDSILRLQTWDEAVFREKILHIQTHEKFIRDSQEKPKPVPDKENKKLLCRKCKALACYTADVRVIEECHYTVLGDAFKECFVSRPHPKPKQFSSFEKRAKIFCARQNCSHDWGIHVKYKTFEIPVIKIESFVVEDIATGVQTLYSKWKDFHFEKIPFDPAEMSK

Q: With “ATCTCTGTGTCATGTGTTTTAATGTCAGTTTAATGATGAGG [14832-55_8]” as the sequence, how does the Kd [1] read?
A: Its Kd is 0.62 nM.

Q: What about the Kd [2] of the same sequence?
A: Its Kd is 10 nM.

Q: And the Kd [3]?
A: The Kd was 0.013 nM.
